Earlier results as cited in article PMC12990809.

Key:
Experiment in all cases: pulldown
Details in all cases: 20 nM protein, 1.5 uM RNA pool; 20 mM HEPES pH 7.8, 70 mM KCl, 10 mM NaCl, 10% glycerol, 2 mM DTT, 0.1 ug/uL BSA; 30 min, 4 C (protocol of this paper; not …); cited from earlier work
RBMS1 (Homo sapiens) = target: T1, RBMS1 (Homo sapiens) (UniProt P29558)
T1 sequence: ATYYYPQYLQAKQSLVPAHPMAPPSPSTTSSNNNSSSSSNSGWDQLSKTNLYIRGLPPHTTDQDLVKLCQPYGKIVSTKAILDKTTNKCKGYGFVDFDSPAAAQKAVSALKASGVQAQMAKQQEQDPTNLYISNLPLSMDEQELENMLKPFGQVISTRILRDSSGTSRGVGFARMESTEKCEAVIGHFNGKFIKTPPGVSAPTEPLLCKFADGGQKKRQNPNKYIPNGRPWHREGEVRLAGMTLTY

[1] = target: pAbp (Drosophila melanogaster) (UniProt P21187)
[2] = target: T2, CG5213 (Drosophila melanogaster) (UniProt Q7JY27)
T2 sequence: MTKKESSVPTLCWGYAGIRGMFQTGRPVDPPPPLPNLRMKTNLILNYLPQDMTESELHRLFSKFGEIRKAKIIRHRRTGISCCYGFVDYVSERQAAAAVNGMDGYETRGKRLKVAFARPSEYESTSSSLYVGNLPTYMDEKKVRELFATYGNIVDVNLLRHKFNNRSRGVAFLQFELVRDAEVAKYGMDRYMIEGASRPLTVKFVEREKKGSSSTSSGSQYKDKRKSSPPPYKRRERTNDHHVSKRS

CPEB2 (Homo sapiens) = target: T3, CPEB2 (Homo sapiens) (UniProt Q7Z5Q1)
T3 sequence: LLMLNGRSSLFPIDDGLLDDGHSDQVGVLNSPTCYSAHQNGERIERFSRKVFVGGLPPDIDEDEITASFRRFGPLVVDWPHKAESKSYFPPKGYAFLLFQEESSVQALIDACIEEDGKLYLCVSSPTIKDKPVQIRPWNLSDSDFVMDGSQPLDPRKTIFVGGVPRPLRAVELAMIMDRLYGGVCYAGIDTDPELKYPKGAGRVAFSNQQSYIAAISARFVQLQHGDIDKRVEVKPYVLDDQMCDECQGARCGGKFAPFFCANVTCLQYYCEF

[3] = target: T4, CG2931 (Drosophila melanogaster) (UniProt Q7JZA8)
T4 sequence: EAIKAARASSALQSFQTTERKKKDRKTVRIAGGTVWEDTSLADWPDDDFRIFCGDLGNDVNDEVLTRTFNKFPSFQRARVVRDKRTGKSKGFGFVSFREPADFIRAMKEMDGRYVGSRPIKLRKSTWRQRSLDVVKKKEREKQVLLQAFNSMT

CNOT4 (Homo sapiens) = target: T5, CNOT4 (Homo sapiens) (UniProt O95628)
T5 sequence: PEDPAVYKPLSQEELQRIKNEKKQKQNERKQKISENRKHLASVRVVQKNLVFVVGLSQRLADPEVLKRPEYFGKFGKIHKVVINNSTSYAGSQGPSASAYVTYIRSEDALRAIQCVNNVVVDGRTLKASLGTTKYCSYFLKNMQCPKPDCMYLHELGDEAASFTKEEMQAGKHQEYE

[4] = target: T6, qkr58E-1 (Drosophila melanogaster) (UniProt Q7JVR3)
T6 sequence: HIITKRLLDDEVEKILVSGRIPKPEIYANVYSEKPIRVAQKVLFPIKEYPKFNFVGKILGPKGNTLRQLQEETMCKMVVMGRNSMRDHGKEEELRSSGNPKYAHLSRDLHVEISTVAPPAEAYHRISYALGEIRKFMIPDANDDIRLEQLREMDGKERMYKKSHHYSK

[5] = target: mub (Drosophila melanogaster) (UniProt M9NGB9)
PABPN1 (Homo sapiens) = target: T7, PABPN1 (Homo sapiens) (UniProt Q86U42)
T7 sequence: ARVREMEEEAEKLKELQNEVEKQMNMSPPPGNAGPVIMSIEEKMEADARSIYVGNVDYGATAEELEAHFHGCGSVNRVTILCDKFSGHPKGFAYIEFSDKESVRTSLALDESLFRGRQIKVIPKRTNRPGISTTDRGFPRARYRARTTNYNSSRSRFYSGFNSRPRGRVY

[6] = target: T8, CG7804 (Drosophila melanogaster) (UniProt Q7JW23)
T8 sequence: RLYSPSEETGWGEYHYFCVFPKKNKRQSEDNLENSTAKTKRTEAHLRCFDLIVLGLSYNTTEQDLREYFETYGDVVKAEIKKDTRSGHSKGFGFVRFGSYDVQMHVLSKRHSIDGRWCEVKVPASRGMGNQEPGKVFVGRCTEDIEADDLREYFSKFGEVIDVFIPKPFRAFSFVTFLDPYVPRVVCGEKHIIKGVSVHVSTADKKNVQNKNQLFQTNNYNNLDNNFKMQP

HNRNPH2 (Homo sapiens) = target: T9, HNRNPH2 (Homo sapiens) (UniProt P55795)
T9 sequence: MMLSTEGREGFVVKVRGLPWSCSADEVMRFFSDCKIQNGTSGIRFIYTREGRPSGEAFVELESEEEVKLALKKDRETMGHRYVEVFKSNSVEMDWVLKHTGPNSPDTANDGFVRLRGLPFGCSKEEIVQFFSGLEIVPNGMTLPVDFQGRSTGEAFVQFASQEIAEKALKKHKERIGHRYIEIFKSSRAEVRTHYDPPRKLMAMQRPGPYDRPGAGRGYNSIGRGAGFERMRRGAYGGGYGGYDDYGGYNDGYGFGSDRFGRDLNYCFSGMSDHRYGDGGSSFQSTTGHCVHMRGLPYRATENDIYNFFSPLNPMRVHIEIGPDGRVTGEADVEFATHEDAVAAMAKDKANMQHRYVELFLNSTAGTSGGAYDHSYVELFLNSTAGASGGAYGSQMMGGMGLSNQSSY

[7] = target: T10, snf (Drosophila melanogaster) (UniProt P43332)
T10 sequence: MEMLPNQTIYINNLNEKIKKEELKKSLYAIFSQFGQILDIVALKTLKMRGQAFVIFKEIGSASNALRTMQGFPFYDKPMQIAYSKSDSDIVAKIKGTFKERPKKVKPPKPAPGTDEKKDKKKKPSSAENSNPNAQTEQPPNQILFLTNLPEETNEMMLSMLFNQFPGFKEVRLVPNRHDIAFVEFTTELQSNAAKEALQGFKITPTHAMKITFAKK

PABPC3 (Homo sapiens) = PABPC3 (Homo sapiens) (UniProt Q9H361)
RALY (Homo sapiens) = RALY (Homo sapiens) (UniProt Q9UKM9)
CPEB4 (Homo sapiens) = target: T11, CPEB4 (Homo sapiens) (UniProt Q17RY0)
T11 sequence: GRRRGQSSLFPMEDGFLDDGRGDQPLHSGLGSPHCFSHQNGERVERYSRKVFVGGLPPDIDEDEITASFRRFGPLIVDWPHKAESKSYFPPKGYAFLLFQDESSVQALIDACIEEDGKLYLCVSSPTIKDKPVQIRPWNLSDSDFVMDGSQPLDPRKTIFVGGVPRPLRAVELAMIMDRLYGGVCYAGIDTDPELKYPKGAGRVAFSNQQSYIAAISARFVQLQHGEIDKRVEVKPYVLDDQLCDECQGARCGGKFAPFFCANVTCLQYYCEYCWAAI

FXR1 (Homo sapiens) = FXR1 (Homo sapiens) (UniProt P51114)
A1CF (Homo sapiens) = target: T12, A1CF (Homo sapiens) (UniProt Q9NQ94)
T12 sequence: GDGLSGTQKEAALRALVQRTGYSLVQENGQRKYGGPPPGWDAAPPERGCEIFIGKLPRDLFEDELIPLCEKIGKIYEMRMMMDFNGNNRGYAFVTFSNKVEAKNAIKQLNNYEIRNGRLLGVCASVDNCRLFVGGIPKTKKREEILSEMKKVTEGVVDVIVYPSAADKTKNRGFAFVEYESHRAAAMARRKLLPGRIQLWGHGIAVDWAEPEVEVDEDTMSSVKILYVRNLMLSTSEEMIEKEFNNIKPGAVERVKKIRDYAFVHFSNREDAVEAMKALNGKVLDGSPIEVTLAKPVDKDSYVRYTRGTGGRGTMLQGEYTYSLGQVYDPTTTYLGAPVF

ESRP2 (Homo sapiens) = target: T13, ESRP2 (Homo sapiens) (UniProt Q9H6T0)
T13 sequence: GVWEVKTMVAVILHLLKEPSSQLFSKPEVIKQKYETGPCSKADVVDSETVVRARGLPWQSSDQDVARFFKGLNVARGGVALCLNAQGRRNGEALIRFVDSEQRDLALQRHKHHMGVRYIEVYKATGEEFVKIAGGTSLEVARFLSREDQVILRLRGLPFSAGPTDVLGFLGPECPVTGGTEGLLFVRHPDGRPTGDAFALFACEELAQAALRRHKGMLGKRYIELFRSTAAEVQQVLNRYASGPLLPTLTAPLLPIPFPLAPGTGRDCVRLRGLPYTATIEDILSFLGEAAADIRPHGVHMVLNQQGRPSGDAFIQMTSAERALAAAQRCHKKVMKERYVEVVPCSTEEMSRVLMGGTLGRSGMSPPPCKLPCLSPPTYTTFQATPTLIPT

[8] = target: T14, rin (Drosophila melanogaster) (UniProt A0ACM8PZ16)
T14 sequence: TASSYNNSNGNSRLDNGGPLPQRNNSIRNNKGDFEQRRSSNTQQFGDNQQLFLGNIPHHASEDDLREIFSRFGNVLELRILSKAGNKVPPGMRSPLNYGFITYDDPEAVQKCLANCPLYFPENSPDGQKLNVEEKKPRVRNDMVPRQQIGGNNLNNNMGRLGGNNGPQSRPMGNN

PABPC1 (Homo sapiens) = PABPC1 (Homo sapiens) (UniProt P11940)
RBM42 (Homo sapiens) = target: T15, RBM42 (Homo sapiens) (UniProt Q9BTD8)
T15 sequence: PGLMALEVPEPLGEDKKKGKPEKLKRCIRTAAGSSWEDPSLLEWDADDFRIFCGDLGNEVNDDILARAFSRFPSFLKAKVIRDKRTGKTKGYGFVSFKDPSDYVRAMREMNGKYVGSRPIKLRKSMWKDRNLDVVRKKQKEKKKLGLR

[9] = target: T16, B52 (Drosophila melanogaster) (UniProt P26686)
T16 sequence: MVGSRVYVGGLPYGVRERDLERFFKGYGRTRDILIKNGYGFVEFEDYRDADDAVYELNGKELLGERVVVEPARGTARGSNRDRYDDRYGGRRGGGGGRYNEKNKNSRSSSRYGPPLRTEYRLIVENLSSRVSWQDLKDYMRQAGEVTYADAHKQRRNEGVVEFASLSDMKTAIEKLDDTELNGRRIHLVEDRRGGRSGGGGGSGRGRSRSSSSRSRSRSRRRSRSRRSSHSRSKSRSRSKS

[10] = target: T17, papi (Drosophila melanogaster) (UniProt Q9VQ91)
T17 sequence: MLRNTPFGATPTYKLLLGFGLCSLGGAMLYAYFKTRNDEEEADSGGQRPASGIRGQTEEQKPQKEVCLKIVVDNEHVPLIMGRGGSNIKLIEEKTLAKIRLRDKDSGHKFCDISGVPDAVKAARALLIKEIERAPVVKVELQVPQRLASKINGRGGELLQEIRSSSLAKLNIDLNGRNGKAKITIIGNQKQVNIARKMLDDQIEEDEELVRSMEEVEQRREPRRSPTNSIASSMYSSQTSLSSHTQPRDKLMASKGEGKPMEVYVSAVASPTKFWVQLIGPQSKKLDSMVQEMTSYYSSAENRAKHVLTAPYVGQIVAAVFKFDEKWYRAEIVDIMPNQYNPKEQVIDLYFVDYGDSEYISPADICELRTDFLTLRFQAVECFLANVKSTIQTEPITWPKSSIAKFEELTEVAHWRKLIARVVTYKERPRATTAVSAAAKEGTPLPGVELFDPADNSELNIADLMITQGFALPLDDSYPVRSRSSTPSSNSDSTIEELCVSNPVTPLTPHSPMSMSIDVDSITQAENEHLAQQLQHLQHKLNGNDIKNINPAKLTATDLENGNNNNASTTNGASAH

Chain of FXR1 (Homo sapiens) (P51114 170-401): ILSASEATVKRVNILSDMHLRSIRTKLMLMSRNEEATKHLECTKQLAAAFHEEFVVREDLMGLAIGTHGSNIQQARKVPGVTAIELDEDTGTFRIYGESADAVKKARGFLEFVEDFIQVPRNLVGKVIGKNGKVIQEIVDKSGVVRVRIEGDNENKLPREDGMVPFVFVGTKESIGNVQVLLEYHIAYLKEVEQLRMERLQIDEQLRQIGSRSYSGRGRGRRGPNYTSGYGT
Chain of pAbp (Drosophila melanogaster) (P21187 1-408): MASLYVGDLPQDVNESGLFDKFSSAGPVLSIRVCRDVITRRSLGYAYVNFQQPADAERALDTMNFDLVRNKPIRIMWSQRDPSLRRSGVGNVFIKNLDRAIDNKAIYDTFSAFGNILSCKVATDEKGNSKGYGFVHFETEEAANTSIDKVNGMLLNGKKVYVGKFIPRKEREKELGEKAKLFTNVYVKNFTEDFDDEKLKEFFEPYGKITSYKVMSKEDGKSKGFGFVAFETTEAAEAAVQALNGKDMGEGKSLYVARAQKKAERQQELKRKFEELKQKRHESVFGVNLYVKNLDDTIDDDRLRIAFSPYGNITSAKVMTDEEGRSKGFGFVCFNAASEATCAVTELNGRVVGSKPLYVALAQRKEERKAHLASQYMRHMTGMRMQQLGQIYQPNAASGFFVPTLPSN
Chain of mub (Drosophila melanogaster) (M9NGB9 entry or part of it): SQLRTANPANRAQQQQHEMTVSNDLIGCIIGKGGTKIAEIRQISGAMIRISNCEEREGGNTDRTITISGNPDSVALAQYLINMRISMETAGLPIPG
Chain of PABPC3 (Homo sapiens) (Q9H361 1-414): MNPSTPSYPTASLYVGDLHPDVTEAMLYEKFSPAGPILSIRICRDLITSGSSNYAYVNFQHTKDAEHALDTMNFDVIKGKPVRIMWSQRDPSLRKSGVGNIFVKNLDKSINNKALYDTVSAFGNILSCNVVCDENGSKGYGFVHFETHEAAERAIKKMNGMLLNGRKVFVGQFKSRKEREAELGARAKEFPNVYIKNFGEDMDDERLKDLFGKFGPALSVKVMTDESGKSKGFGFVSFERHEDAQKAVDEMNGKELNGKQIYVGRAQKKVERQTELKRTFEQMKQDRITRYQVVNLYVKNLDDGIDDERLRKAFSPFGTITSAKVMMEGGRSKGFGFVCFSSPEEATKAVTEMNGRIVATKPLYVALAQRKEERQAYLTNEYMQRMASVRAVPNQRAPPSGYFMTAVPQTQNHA
Chain of RALY (Homo sapiens) (Q9UKM9 1-136): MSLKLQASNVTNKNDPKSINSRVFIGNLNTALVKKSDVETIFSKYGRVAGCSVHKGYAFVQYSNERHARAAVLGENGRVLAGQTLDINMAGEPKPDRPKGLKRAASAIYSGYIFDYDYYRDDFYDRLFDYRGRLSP
Chain of PABPC1 (Homo sapiens) (P11940 1-414): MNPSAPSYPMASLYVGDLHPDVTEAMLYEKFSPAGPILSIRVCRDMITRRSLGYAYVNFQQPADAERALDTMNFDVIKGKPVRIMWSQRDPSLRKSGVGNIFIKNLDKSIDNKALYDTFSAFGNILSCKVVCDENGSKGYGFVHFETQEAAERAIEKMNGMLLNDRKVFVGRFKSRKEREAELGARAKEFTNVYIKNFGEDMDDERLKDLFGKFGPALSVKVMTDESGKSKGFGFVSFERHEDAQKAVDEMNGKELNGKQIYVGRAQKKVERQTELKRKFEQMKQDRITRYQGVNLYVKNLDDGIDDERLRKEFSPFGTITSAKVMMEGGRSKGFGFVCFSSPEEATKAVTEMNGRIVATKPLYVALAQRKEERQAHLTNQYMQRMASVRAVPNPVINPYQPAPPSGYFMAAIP

## AUAUAG [RNAcompete motif RNCMPT00152]
RBMS1 (Homo sapiens)
  binding signal (z-score (mean of top ten 7-mers)): 7.69

## GAAAA [RNAcompete motif RNCMPT00139]
[1]
  binding signal (z-score (mean of top ten 7-mers)): 13

## UACUUU [RNAcompete motif RNCMPT00010]
[2]
  binding signal (z-score (mean of top ten 7-mers)): 11.8

## CCUUUUU [RNAcompete motif RNCMPT00012]
CPEB2 (Homo sapiens)
  binding signal (z-score (mean of top ten 7-mers)): 10.8

## ACUAAG [RNAcompete motif RNCMPT00147]
[3]
  binding signal (z-score (mean of top ten 7-mers)): 11.6

## GACAGA [RNAcompete motif RNCMPT00156]
CNOT4 (Homo sapiens)
  binding signal (z-score (mean of top ten 7-mers)): 19

## ANAAUAA [RNAcompete motif RNCMPT00142]
[4]
  binding signal (z-score (mean of top ten 7-mers)): 6.18

## AACCCU [RNAcompete motif RNCMPT00137]
[5]
  binding signal (z-score (mean of top ten 7-mers)): 10.1

## AGAAGA [RNAcompete motif RNCMPT00157]
PABPN1 (Homo sapiens)
  binding signal (z-score (mean of top ten 7-mers)): 11.4

## GNGUG [RNAcompete motif RNCMPT00146]
[6]
  binding signal (z-score (mean of top ten 7-mers)): 8.15

## GGGAGGG [RNAcompete motif RNCMPT00160]
HNRNPH2 (Homo sapiens)
  binding signal (z-score (mean of top ten 7-mers)): 16.8

## UUGCACA [RNAcompete motif RNCMPT00145]
[7]
  binding signal (z-score (mean of top ten 7-mers)): 14

## AAAACC [RNAcompete motif RNCMPT00153]
PABPC3 (Homo sapiens)
  binding signal (z-score (mean of top ten 7-mers)): 8.16

## UUUUUU [RNAcompete motif RNCMPT00159]
RALY (Homo sapiens)
  binding signal (z-score (mean of top ten 7-mers)): 16.1

## UUUUUU [RNAcompete motif RNCMPT00158]
CPEB4 (Homo sapiens)
  binding signal (z-score (mean of top ten 7-mers)): 14.8

## AAUGACAA [RNAcompete motif RNCMPT00161]
FXR1 (Homo sapiens)
  binding signal (z-score (mean of top ten 7-mers)): 6.01

## UAAUUG [RNAcompete motif RNCMPT00001]
A1CF (Homo sapiens)
  binding signal (z-score (mean of top ten 7-mers)): 12.6

## AUGGGGA [RNAcompete motif RNCMPT00150]
ESRP2 (Homo sapiens)
  binding signal (z-score (mean of top ten 7-mers)): 7.36

## GGGUGGG [RNAcompete motif RNCMPT00138]
[8]
  binding signal (z-score (mean of top ten 7-mers)): 9.16

## GAAAAA [RNAcompete motif RNCMPT00155]
PABPC1 (Homo sapiens)
  binding signal (z-score (mean of top ten 7-mers)): 11.3

## AACUANG [RNAcompete motif RNCMPT00151]
RBM42 (Homo sapiens)
  binding signal (z-score (mean of top ten 7-mers)): 11.2

## GGAGGGG [RNAcompete motif RNCMPT00134]
[9]
  binding signal (z-score (mean of top ten 7-mers)): 7.73

## UNUGUGU [RNAcompete motif RNCMPT00011]
[10]
  binding signal (z-score (mean of top ten 7-mers)): 17.7
